Molecular target: the molecule itself
Experiment: crystal structure

B1: α-carbonic anhydrase from Persephonella marina EX-H1 (enzyme, UniProt C0QRB5 20-243, looked up)
chain: GGGWSYHGEHGPEHWGDLKDEYIMCKIGKNQSPVDINRIVDAKLKPIKIEYRAGATKVLNNGHTIKVSYEPGSYIVVDGIKFELKQFHFHAPSEHKLKGQHYPFEAHFVHADKHGNLAVIGVFFKEGRENPILEKIWKVMPENAGEEVKLAHKINAEDLLPKDRDYYRYSGSLTTPPCSEGVRWIVMEEEMEMSKEQIEKFRKIMGGDTNRPVQPLNARMIMEK
stoichiometry N: 2
